Measured values published in PMC3858276 (2013).
Where no end group is shown, it is not given here.

T1: phosphorylated SNAP-ADAP fusion protein (ADAP amino acids 570-690) (human, UniProt O15117 570-690, phosphotyrosine (in vitro phosphorylation by Fyn kinase, approx. 90% of each phosphorylation site; sites in Table S1); BG-647 dye on the SNAP-tag)
T1 chain: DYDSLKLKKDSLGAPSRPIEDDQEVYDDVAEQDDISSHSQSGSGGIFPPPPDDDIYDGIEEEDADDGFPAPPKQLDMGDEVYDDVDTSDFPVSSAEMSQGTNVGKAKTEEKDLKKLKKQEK

T2: Fyn SH2 domain without biotin (for MST) (UniProt P06241 149-246)
T2 chain: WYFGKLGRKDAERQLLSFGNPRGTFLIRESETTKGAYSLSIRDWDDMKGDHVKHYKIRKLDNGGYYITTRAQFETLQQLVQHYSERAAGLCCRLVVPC

B1: SLP-76 SH2 domain without biotin (for MST) (domain or fragment)
chain: WYVSYITRPEAEAALRKINQDGTFLVRDSSKKTTTNPYVLMVLYKDKVYNIQIRYQKESQVYLLGTGLRGKEDFLSVSDIIDYFRKMPLLLIDGKNRGSRYQCTLTHAA
B2: Rasa1b (Rasa1 sequence 174-447) without biotin (for MST) (domain or fragment)
chain: TAPPTNQWYHGKLDRTIAEERLRQAGKSGSYLIRESDRRPGSFVLSFLSQMNVVNHFRIIAMCGDYYIGGRRFSSLSDLIGYYSHVSCLLKGEKLLYPVAPPEPVEDRRRVRAILPYTKVPDTDEISFLKGDMFIVHNELEDGWMWVTNLRTDEQGLIVEDLVEEVGREEDPHEGKIWFHGKISKQEAYNLLMTVGQVCSFLVRPSDNTPGDYSLYFRTNENIQRFKICPTPNNQFMMGGRYYNSIGDIIDHYRKEQIVEGYYLKEPVPMQDQE
B3: Lck SH2 domain without biotin (for MST) (domain or fragment)
chain: WFFKNLSRKDAERQLLAPGNTHGSFLIRESESTAGSFSLSVRDFDQNQGEVVKHYKIRNLDNGGFYISPRITFPGLHELVRHYTNASDGLCTRLSRPC
B4: phosphorylated SNAP-YEEI fusion (middle T antigen aa 315-331) (peptide)
chain: THQEEEEPQYEEIPIYL
modifications: not fully specified; also: tyrosine phosphorylation in vitro by Fyn, degree not placed
B5: RasaN (N-terminal SH2 domain of Rasa1) without biotin (for MST) (domain or fragment)
chain: WYHGKLDRTIAEERLRQAGKSGSYLIRESDRRPGSFVLSFLSQMNVVNHFRIIAMCGDYYIGGRRFSSLSDLIGYYSHVSCLLKGEKLLYPV
B6: SH2D1A without biotin (for MST) (natural protein)
chain: MDAVAVYHGKISRETGEKLLLATGLDGSYLLRDSESVPGVYCLCVLYHGYIYTYRVSQTETGSWSAETAPGVHKRYFRKIKNLISAFQKPDQGIVIPLQYPVEKKSSARSTQGTTGIREDPDVCLKAP

Tests used:
Test in all cases: MST
[1] = target: T1, phosphorylated SNAP-ADAP fusion protein …
[2] = target: T2, Fyn SH2 domain without biotin (for MST)
[3] = target: B5
[4] = target: B2
[5] = target: B6
[6] = target: B3

Binder: B1
- Kd [1]: 457 nM

Binder: B2
- Kd [1]: 152 nM

Binder: B3
- Kd [1]: 1300 nM

Binder: B4
- Kd [2]: 430 nM
- Kd [3]: 128 nM
- Kd [4]: 189 nM
- Kd [5]: 2340 nM
- Kd [6]: 595 nM

Binder: B5
- Kd [1]: 142 nM

Binder: B6
- Kd [1]: 5730 nM
